Values of other authors, collected in PMC6916721.

Legend:
His95 = His95 (UniProt position 121, YHCTPHPFMRG); settings: reduced (Cu+) amicyanin, free (not in complex with MADH)
[1] = target: Amicyanin, reduced (Cu+) form (UniProt P22364); settings: pH
Chain of Amicyanin, reduced (Cu+) form (P22364 whole entry): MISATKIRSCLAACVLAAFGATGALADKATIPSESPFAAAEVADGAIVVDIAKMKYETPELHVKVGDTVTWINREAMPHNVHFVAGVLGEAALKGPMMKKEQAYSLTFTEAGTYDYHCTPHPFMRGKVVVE

Row | pKa, His95 of amicyanin (copper ligand, reduced Cu+ state) [1] [pH units] | Substance | pKa (His95)
1 | – | Amicyanin (Paracoccus denitrificans) | 7.7
2 | 7.7 | Methylamine dehydrogenase (MADH) | –
